Legend:
SEC-MALS = target: the molecule itself; assay: SEC-MALS
mass photometry = target: the molecule itself; assay: mass photometry

B1: NIT1 WT (purified recombinant AtNIT1) (enzyme)
chain: MSSTKDMSTVQNATPFNGVAPSTTVRVTIVQSSTVYNDTPATIDKAEKYIVEAASKGAELVLFPEGFIGGYPRGFRFGLAVGVHNEEGRDEFRKYHASAIHVPGPEVARLADVARKNHVYLVMGAIEKEGYTLYCTVLFFSPQGQFLGKHRKLMPTSLERCIWGQGDGSTIPVYDTPIGKLGAAICWENRMPLYRTALYAKGIELYCAPTADGSKEWQSSMLHIAIEGGCFVLSACQFCQRKHFPDHPDYLFTDWYDDKEHDSIVSQGGSVIISPLGQVLAGPNFESEGLVTADIDLGDIARAKLYFDSVGHYSRPDVLHLTVNEHPRKSVTFVTKVEKAEDDSNK
modifications: RED-NHS 2nd Generation dye (in the MST only)
Question: With B1 as the protein, how does the “stoichiometry N” value (SEC-MALS) read?
Answer: The value was 20.

Question: And the “stoichiometry N” value (mass photometry)?
Answer: Its value is at most 10.

— paper doi:10.1101/2024.05.06.590709 (bioRxiv, 2024)
